# Laboratory results published in US20260008857A1 (FLAGSHIP PIONEERING INNOVATIONS VI, published 2026).
# Where two headings read alike, the source gives them in different places.
# Tests used:
# [1] = molecular target: T1, human IL-4Rα (interleukin 4 receptor subunit alpha) (human, UniProt P24394 26-232, limits assumed); assay: indirect ELISA on plate-coated recombinant human IL-4Rα (2 ug/mL), anti-human IgG Fc-HRP, A450
# T1 sequence (looked up): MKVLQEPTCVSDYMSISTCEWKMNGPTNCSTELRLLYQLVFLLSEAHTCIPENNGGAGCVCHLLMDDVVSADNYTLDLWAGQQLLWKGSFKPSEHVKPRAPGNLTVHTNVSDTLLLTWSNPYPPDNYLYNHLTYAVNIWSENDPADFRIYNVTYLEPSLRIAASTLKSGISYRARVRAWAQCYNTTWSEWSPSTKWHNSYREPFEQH
# [2] = molecular target: T2, IL-4Rα on human primary cells (primary B cells, whole blood B and T cells, PBMCs) (human, UniProt P24394 26-825); assay: cell-based or functional assay
# T2 sequence (looked up): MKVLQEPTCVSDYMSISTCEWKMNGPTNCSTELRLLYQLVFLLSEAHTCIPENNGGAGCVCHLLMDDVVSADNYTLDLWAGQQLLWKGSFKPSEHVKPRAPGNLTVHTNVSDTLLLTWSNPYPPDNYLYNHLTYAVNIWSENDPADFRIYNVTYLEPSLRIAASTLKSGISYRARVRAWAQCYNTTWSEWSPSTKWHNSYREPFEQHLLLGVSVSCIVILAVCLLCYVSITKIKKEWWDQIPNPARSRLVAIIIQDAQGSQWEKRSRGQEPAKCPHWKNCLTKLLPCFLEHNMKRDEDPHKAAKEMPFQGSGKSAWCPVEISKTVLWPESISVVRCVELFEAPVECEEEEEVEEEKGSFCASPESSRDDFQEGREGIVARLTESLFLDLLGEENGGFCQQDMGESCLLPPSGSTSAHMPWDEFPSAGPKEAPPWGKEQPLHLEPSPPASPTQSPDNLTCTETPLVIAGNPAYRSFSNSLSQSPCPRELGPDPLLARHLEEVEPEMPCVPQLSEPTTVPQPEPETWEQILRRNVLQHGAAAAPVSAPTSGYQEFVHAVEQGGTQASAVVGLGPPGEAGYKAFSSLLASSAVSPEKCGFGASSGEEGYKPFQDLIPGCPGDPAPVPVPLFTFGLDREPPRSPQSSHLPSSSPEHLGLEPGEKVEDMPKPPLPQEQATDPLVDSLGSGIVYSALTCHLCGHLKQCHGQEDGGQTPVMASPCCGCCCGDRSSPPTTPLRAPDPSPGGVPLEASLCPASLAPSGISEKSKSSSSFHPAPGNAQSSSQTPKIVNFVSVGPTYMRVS
# [3] = molecular target: T1, human IL-4Rα (interleukin 4 receptor …); assay: SPR, Biacore 8K+ multi-cycle capture kinetics; antibody captured on goat anti-human polyclonal surface, human IL-4Rα as analyte, 25 C, 1:1 model
# [4] = molecular target: T1, human IL-4Rα (interleukin 4 receptor …); assay: SPR, Carterra LSA non-regenerative capture kinetics; antibody captured on goat anti-human polyclonal lawn, human IL-4Rα as analyte, 25 C, 1:1 model; average ± SD of technical replicates
# [5] = molecular target: T1, human IL-4Rα (interleukin 4 receptor …); assay: indirect ELISA on plate-coated recombinant human IL-4Rα (2 ug/mL), anti-human IgG Fc-HRP, A450; remark: listed apart in the source
# [6] = molecular target: T1, human IL-4Rα (interleukin 4 receptor …); assay: cell-based or functional assay
binder,measurement,setting,value
"AB-3c (antibody, human IgG4 S228P, kappa, hIgG4 WT ('c')) heavy chain: not shown light chain: DIVMTQSPLSLPVTPGEPASISCRSSQSLLYSTGYNYLDWYLQKSGQSPQLLIYLGSNRASGVPDRFSGSGSGTDFTLKISRVEAEDVGFYYCMQSLSTPYTFGQGTKLEIKRTVAAPSVFIFPPSDEQLKSGTASVVCLLNNFYPREAKVQWKVDNALQSGNSQESVTEQDSKDSTYSLSSTLTLSKADYEKHKVYACEVTHQGLSSPVTKSFNRGEC",EC50 (read off the curve),[1],~0.1 nM
"AB-13c (antibody, human IgG4 S228P, kappa, hIgG4 wild type, kappa) heavy: not shown light: DIVMTQSPLSLPVTPGEPASISCRSSQSLLYSHGYNYLDWYLQKSGQSPQLLIYLASNRASGVPDRFSGSGSGTDFTLKISRVEAEDVGFYYCMQSLYTPYTFGQGTKLEIKRTVAAPSVFIFPPSDEQLKSGTASVVCLLNNFYPREAKVQWKVDNALQSGNSQESVTEQDSKDSTYSLSSTLTLSKADYEKHKVYACEVTHQGLSSPVTKSFNRGEC","Inhibition of CD23 Expression by Primary B cells (IC50), Donor 13",[2],24.9 nM
same,"Inhibition of CD23 Expression by Primary B cells (IC50), Donor 52",[2],23 nM
same,"Inhibition of CD23 Expression by Primary B cells (IC50), Donor 53",[2],26.2 nM
same,"Inhibition of CD23 Expression by Primary B cells (IC50), Donor 56",[2],25.8 nM
same,EC50 (read off the curve),[1],~0.05 nM
same,Kd,[3],0.0266 nM
same,koff,[3],2.22e-05 s⁻¹
same,kon,[3],836000 M⁻¹ s⁻¹
same,Kd,[4],≤ 0.12 nM
"AB-9d (antibody, human IgG1, kappa, hIgG1 ('d')) heavy chain: not shown light chain: DIVMTQSPLSLPVTPGEPASISCRSSQSLLYSLGYNYLDWYLQKSGQSPQLLIYLASNRASGVPDRFSGSGSGTDFTLKISRVEAEDVGFYYCMQSLQTPYTFGQGTKLEIKRTVAAPSVFIFPPSDEQLKSGTASVVCLLNNFYPREAKVQWKVDNALQSGNSQESVTEQDSKDSTYSLSSTLTLSKADYEKHKVYACEVTHQGLSSPVTKSFNRGEC",EC50 (read off the curve),[5],~0.02 nM
"AB-1d (antibody, human IgG1, kappa, V domains shown, hIgG1 ('d')) VH: EVQLVESGGGLEQPGGSLRLSCAGSGFTFSDYAMTWVRQAPGKGLEWVSSISGSGGNTYYADSVKGRFTISRDNSKNTLYLQMNSLRAEDTAVYYCAKDALTIAIRPYYYGLDVWGQGTTVTVSS VL: DIVMTQSPLSLPVTPGEPASISCRSSQSLDYSYGYNYLDWYLQKSGQSPQLLIYLASNRASGVPDRFSGSGSGTDFTLKISRVEAEDVGFYYCMQSLSTPYTFGQGTKLEIKR",binding result,[5],binds
"AB-12d (antibody, human IgG1, kappa) heavy chain: not shown light chain: DIVMTQSPLSLPVTPGEPASISCRSSQSLLYSQGYNYLDWYLQKSGQSPQLLIYLASNRASGVPDRFSGSGSGTDFTLKISRVEAEDVGFYYCMQSLFTPYTFGQGTKLEIKRTVAAPSVFIFPPSDEQLKSGTASVVCLLNNFYPREAKVQWKVDNALQSGNSQESVTEQDSKDSTYSLSSTLTLSKADYEKHKVYACEVTHQGLSSPVTKSFNRGEC",IC50 (read off the curve),[6],~0.4 nM
"AB-9c (antibody, human IgG4 S228P, kappa, hIgG4 WT, kappa) heavy: not shown light: DIVMTQSPLSLPVTPGEPASISCRSSQSLLYSLGYNYLDWYLQKSGQSPQLLIYLASNRASGVPDRFSGSGSGTDFTLKISRVEAEDVGFYYCMQSLQTPYTFGQGTKLEIKRTVAAPSVFIFPPSDEQLKSGTASVVCLLNNFYPREAKVQWKVDNALQSGNSQESVTEQDSKDSTYSLSSTLTLSKADYEKHKVYACEVTHQGLSSPVTKSFNRGEC",EC50 (read off the curve),[1],~0.02 nM
same,Kd,[4],0.63 nM
